A word on the EC50: it is the concentration that produces a half-maximal response.

For two molecules, EC50 results are on record in patent US20240173442A1 (Hoffmann-La Roche, published 2024).

The target in the assay is T1, carcinoembryonic antigen (CEA) (human, UniProt P06731 35-685).
T1 construct: whole, on cells; also called CEACAM5; Carcinoembryonic antigen-related cell adhesion molecule 5
T1 sequence (looked up): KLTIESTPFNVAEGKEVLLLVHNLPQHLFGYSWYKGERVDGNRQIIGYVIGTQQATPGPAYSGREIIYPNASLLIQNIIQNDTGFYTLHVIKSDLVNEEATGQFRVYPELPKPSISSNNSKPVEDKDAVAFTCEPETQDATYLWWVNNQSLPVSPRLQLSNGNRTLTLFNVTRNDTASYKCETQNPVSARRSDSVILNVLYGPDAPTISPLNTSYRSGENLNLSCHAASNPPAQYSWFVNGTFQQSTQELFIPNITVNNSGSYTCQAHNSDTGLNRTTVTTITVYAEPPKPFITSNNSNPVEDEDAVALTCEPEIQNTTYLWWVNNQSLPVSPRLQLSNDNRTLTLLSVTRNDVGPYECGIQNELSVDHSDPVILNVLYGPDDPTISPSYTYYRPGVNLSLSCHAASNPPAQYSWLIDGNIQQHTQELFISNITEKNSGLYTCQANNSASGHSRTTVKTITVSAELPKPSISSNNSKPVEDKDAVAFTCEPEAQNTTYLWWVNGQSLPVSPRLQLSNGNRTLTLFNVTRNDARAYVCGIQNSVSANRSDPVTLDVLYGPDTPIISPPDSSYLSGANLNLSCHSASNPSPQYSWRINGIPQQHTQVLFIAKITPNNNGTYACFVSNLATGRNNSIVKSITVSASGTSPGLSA
The experiment in a line: FACS on MKN-45 cells, detection with anti-huIgG(H+L)-Alexa488. Here is the method:
MKN-45 cells were detached from the culture bottle using Trypsin and were counted using a Casy cell counter. After pelleting at 4° C., 300 g the cells were resuspended in FACS Buffer (2.5% FCS in PBS), adjusted to 2.0E+06 cells/mL dispensed to 96-well PP V-bottom-Platte (25 μL/well=5.0E+04Zellen/well).
The CEA specific SPLIT antibodies (P1AF0712 or P1AF0713 respectively) were adjusted to 40 μg/mL in FACS buffer, resulting in a final concentration of 10 μg/mL. Both antibodies were added to the cells either separated followed by buffer or combined and incubated at 4° C. for 1 h. The cells were then washed twice in FACS buffer. After washing, the cells were resuspended in 50 μL FACS-buffer containing secondary antibody (<huIgG(H+L)>-Alexa488, c=10 μg/mL) and incubated 1h at 4° C. The cells were then washed twice in FACS buffer and resuspended in 70 μl/well FACS buffer for measurement using a FACS Canto (BD, Pharmingen).

B1: P1AF0712 (CEA-split-DOTA-VL, CH1A1A) (antibody, human IgG1, kappa, L234A L235A)
heavy 1: not shown
heavy 2: QVQLVQSGAEVKKPGASVKVSCKASGYTFTEFGMNWVRQAPGQGLEWMGWINTKTGEATYVEEFKGRVTFTTDTSTSTAYMELRSLRSDDTAVYYCARWDFAYYVEAMDYWGQGTTVTVSSASTKGPSVFPLAPSSKSTSGGTAALGCLVKDYFPEPVTVSWNSGALTSGVHTFPAVLQSSGLYSLSSVVTVPSSSLGTQTYICNVNHKPSNTKVDKKVEPKSCDKTHTCPPCPAPEAAGGPSVFLFPPKPKDTLMISRTPEVTCVVVDVSHEDPEVKFNWYVDGVEVHNAKTKPREEQYNSTYRVVSVLTVLHQDWLNGKEYKCKVSNKALGAPIEKTISKAKGQPREPQVCTLPPSRDELTKNQVSLSCAVKGFYPSDIAVEWESNGQPENNYKTTPPVLDSDGSFFLVSKLTVDKSRWQQGNVFSCSVMHEALHNHYTQKSLSLSPGGGGGSGGGGSGGGGSGGGGSQAVVIQESALTTPPGETVTLTCGSSTGAVTASNYANWVQEKPDHLFTGLIGGHNNRPPGVPARFSGSLIGDKAALTIAGTQTEDEAIYFCALWYSDHWVIGGGTKLTVL
light: DIQMTQSPSSLSASVGDRVTITCKASAAVGTYVAWYQQKPGKAPKLLIYSASYRKRGVPSRFSGSGSGTDFTLTISSLQPEDFATYYCHQYYTYPLFTFGQGTKLEIKRTVAAPSVFIFPPSDEQLKSGTASVVCLLNNFYPREAKVQWKVDNALQSGNSQESVTEQDSKDSTYSLSSTLTLSKADYEKHKVYACEVTHQGLSSPVTKSFNRGEC
notes: also called CEA specific SPLIT antibody; P6_A
B1 returned an EC50 of 2.7 µg/mL.

B2: P1AF0713 (CEA-split-DOTA-VH-AST, CH1A1A) (antibody, human IgG1, kappa, L234A L235A)
heavy 1: QVQLVQSGAEVKKPGASVKVSCKASGYTFTEFGMNWVRQAPGQGLEWMGWINTKTGEATYVEEFKGRVTFTTDTSTSTAYMELRSLRSDDTAVYYCARWDFAYYVEAMDYWGQGTTVTVSSASTKGPSVFPLAPSSKSTSGGTAALGCLVKDYFPEPVTVSWNSGALTSGVHTFPAVLQSSGLYSLSSVVTVPSSSLGTQTYICNVNHKPSNTKVDKKVEPKSCDKTHTCPPCPAPEAAGGPSVFLFPPKPKDTLMISRTPEVTCVVVDVSHEDPEVKFNWYVDGVEVHNAKTKPREEQYNSTYRVVSVLTVLHQDWLNGKEYKCKVSNKALGAPIEKTISKAKGQPREPQVCTLPPSRDELTKNQVSLSCAVKGFYPSDIAVEWESNGQPENNYKTTPPVLDSDGSFFLVSKLTVDKSRWQQGNVFSCSVMHEALHNHYTQKSLSLSPG
heavy 2: not shown
light: B1 light
notes: also called CEA specific SPLIT antibody; P6_B
B2: the concentration giving a half-maximal response (EC50) turned out to be 2.3 µg/mL.
